This test addresses A-beta42 Monomer (human). Kind of test: SPR direct binding (MASS-1), hybridoma supernatant over immobilized antigen.

A-beta42 Monomer (human), sequence (peptide, as listed by the source): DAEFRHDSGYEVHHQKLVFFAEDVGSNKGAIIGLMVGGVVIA

B1: 301-12G11 (17) (antibody, V domains shown)
VH: QVQLQQPGAELVKPGASVKMSCKASGYSFTSYWINWVKQRPGQGLEWIGDVHPGRGVSTYNAKFKSKATLTLDTSSSTAYMQLSSLTSEDSAVYYCSRSHGNTYWFFDVWGAGTTVTVSS
VL: DVLMTQTPLSLPVSLGDQASISCRSSQSIVHSNGNTYLEWYLQKPGQSPKLLIYKVSNRFSGVPDRFSGSGSGTDFTLKISRVEAEDLGVYYCFQGSHVPFTFGSGTKLEIKR
With B1, the response units (RU) was found to be 46 RU.

The record behind these values is US20210087244A1.
